# Laboratory results from US20240010735A1 (EISAI R AND D MANAGEMENT, published 2024).
# B1: mouse anti-EphA4 monoclonal antibody (antibody A) (antibody, mouse IgG1, kappa, V domains shown)
# VH: QVQLKQSGPSLVQPSQSLSITCTVSGFSLTRYGVHWVRQSPGKGLEWLGVIWRGGSTDYNAAFMSRLSITKDNSKSQVFFKMNSLQADDTAIYYCAKESLFGVYYDYGYYSMDYWGQGTSVTVSS
# VL: DIQMTQSPSSLSASLGERVSLTCRASQEISGYLSWLQQKPDGTIKRLIYAASTLDSGVPKRFSGSRSGSDYSLTISSLESEDFADYYCLQYASYPLTFGAGTKLELKR
# notes: purified from hybridoma supernatant
# B2: humanized anti-EphA4 monoclonal antibody (antibody B) (antibody, human IgG2, V domains shown)
# VH: QVQLVESGGGVVQPGRSLRLSCAVSGFSLTRFGVHWVRQAPGKGLEWVAVIWRGGSTDYNAAFMSRLTISKDNSKNTVYLQMNSLRAEDTAVYYCAKESLFGVYYDYGYYSMDYWGQGTTVTVSS
# VL: DIQMTQSPSSLSASVGDRVTITCRASQEISGYLSWLQQKPGKAPKRLIYAASTLDSGVPSRFSGSRSGTEYTLTISSLQPEDFATYYCLQYASYPLTFGGGTKVEIKR
# notes: expressed in Expi293F cells; also called humanized antibody of antibody A; HK2-42 / L1-8
# Tests used:
# [1] = biological target: T1, mouse EphA4 extracellular region-SEAP-His protein (mouse); assay: SPR (Biacore T200): mouse EphA4 extracellular region-SEAP-His captured on anti-His antibody, antibody A 1.6-100 nM as analyte, 1:1 fit
# T1 construct: also called mouse EphA4 extracellular region-SEAP-His 10
# T1 sequence (chain, as listed by the source limits assumed): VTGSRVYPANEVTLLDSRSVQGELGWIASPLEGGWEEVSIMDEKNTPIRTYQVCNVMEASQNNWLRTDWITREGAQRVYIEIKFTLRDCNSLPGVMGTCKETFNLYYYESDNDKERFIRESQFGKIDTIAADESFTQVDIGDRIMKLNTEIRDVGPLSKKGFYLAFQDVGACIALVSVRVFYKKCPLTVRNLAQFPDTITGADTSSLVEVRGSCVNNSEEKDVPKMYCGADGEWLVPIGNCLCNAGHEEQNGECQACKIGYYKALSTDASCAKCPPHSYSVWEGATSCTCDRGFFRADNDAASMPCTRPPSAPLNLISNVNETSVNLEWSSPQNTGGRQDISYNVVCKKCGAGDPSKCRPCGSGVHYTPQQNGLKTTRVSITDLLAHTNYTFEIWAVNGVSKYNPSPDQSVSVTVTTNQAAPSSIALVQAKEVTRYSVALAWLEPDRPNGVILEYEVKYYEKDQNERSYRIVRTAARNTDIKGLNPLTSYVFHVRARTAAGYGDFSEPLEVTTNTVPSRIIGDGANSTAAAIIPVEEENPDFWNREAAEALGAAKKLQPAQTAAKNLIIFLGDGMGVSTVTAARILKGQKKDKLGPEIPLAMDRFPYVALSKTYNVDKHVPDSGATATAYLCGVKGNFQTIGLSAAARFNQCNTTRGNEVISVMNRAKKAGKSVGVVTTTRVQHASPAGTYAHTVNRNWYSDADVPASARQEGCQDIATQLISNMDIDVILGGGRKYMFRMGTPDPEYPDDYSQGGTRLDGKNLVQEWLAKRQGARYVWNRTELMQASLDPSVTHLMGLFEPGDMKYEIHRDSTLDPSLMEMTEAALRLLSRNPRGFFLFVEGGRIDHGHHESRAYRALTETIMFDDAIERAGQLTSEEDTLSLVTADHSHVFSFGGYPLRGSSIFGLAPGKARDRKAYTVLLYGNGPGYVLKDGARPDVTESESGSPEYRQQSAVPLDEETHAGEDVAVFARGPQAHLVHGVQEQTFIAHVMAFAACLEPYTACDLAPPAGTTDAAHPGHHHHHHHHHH
# Protocol: The binding affinity of antibody A against mouse and human EphA4 was determined by surface plasmon resonance (SPR method) employing Biacore T200 (GE Healthcare). First, anti-His antibodies (GE Healthcare, 28-9950-56) were fixed to a sensor chip CM5. Fixation was carried out by amine coupling method employing N-hydroxysuccinimide (NHS) and N-ethyl-N′-(3-dimethylaminopropyl) carbodiimide hydrochloride salt (EDC), and ethanolamine was employed for blocking (the sensor chip and reagents for fixation are all from GE Healthcare). This was diluted with the fixation buffer (10 mM sodium acetate, pH 4.5) to 3.5 μg/mL, and fixed onto the sensor chip according to the protocol accompanying Biacore T200. Mouse or human EphA4 extracellular region-SEAP-His 10 was diluted with the running buffer HBS-EP (GE Healthcare, BR-1001-88), and the solution was sent and captured onto the flow cell for 120 seconds (about 10 RU of captured amount). […] Fitting analysis by 1:1 binding model employing the software accompanying the system, BIA evaluation software, was carried out against the binding reaction curve obtained, and the binding affinity (KD=kd/ka) against mouse and human EphA4 was calculated.
# MBP = assay: ELISA: human EphA4 domain-MBP-His proteins (10 nM) captured on anti-6-His antibody, antibody B 10 nM, HRP anti-human IgG Fc fragment antibody, OD450-OD650
# Protocol: Rabbit anti-6-His antibodies (Bethyl Laboratories) were coated onto the wells of a 96-well plate (Nunc). After incubating at 4° C. overnight, the wells were blocked at room temperature for 1 hour by 1% Block Ace (DS Pharma Biomedical). After washing twice with 0.02% Tween 20/PBS (Nacalai Tesque), human EphA4 extracellular region-MBP-His protein, human EphA4 ligand binding domain-MBP-His protein, human EphA4 fibronectin type III domain 1-MBP-His protein, and human EphA4 fibronectin type III domain 2-MBP-His protein (final concentration 10 nM) were seeded into the wells, and incubated at room temperature for 1 hour. After washing 3 times, antibody B (final concentration 10 nM) was supplemented to the wells, and incubated at room temperature for 1 hour. Horseradish peroxidase-labeled rabbit anti-human IgG Fey fragment antibody (Jackson ImmunoResearch Laboratories) was added, and incubated at room temperature for 1 hour. After washing 5 times, TMB (KPL) solution was added to the wells, and upon confirmation of modest coloring, an equal amount of quenching solution (2 N […]) was added to the wells, and absorbance at 450 nm and 650 nm were read by a microplate reader (PerkinElmer).
# [2] = biological target: T2, rat EphA4 extracellular region-SEAP-His protein (rat, UniProt D3ZZK3 20-547); assay: ELISA: EphA4 extracellular region-SEAP-His (1 nM) captured on anti-alkaline phosphatase antibody, antibody B titrated with human IgG 100 µg/mL, HRP anti-human IgG, OD450 as % of top concentration
# T2 construct: extracellular domain; Its preparation is not described; the limits 20-547 are stated for the Fc-His construct of rat EphA4; not shown: secretory alkaline phosphatase (SEAP); histidine tag
# T2 sequence (D3ZZK3 entry or part of it): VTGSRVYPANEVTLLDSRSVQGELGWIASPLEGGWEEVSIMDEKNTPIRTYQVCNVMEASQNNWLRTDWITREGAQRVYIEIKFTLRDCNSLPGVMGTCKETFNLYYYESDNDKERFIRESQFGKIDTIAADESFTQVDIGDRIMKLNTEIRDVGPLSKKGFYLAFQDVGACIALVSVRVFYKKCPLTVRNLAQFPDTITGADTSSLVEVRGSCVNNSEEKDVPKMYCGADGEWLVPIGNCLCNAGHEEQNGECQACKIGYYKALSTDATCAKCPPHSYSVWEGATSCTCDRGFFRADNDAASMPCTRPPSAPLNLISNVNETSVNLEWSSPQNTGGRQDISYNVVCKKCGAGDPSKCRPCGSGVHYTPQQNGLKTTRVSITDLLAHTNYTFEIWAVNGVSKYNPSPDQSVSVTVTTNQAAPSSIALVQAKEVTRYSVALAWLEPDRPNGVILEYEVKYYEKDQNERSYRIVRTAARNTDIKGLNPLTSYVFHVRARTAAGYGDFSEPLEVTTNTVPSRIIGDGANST
# Protocol: (§1) Anti-alkaline phosphatase antibodies (Thermo […]) were coated onto the wells of a 96-well plate (Nunc). After incubating at 4° C. overnight, the wells were blocked at room temperature for 1 hour by 1% Block Ace (DS Pharma Biomedical). After washing 3 times with 0.05% Tween 20/PBS (Thermo […]), mouse, rat, monkey, and human EphA4 extracellular region-SEAP-His proteins (final concentration 1 nM) were seeded into the wells, and incubated at room temperature for 1 hour. After washing 3 times, human IgG solution (100 μg/mL, Mitsubishi Pharma Corporation) and antibody B (0, 0.00013, 0.00064, 0.0032, 0.016, 0.08, 0.4, 2, 10 μg/mL) were supplemented to the wells, and incubated at room temperature for 1 hour. Horseradish peroxidase-labeled donkey anti-human IgG antibody (Jackson ImmunoResearch Laboratories) was added, and incubated at room, temperature for 1 hour. After washing 3 times, TMBZ (3,3′,5,5′-tetramethylbenzidine, Sigma) solution was added to the wells, and upon confirmation of modest coloring, an equal amount of quenching solution (1 N H₂SO₄, Wako Pure Chemicals) was added to the wells, and absorbance at 450 nm was read by a microplate reader (PerkinElmer).
# [3] = biological target: T1, mouse EphA4 extracellular …; assay: as above
# Protocol: as §1
# [4] = biological target: T3, human EphA4 extracellular region-SEAP-His protein (human, UniProt P54764 20-547); assay: as above
# T3 construct: also called human EphA4 extracellular region-SEAP-His 10; not shown: secretory alkaline phosphatase (SEAP); histidine tag
# T3 sequence (P54764 20-547): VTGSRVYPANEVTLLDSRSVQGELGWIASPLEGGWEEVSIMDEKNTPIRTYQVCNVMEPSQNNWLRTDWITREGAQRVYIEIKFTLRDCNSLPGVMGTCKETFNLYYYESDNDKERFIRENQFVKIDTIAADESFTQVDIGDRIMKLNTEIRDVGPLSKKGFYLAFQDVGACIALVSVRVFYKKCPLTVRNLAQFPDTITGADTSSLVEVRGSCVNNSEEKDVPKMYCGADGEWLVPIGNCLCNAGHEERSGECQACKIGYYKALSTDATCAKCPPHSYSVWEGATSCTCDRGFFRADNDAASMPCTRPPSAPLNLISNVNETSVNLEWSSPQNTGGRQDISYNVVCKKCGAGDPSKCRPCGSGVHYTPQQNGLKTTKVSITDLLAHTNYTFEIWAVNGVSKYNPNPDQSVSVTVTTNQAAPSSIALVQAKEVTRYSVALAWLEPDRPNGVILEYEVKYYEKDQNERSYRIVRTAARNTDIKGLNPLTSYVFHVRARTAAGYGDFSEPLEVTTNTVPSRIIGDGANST
# Protocol: as §1
# [5] = biological target: T4, monkey EphA4 extracellular region-SEAP-His protein (monkey); assay: as above
# T4 construct: Its preparation is not described; not shown: secretory alkaline phosphatase (SEAP); histidine tag
# T4 sequence (chain, as listed by the source): as the sequence (P54764 20-547) above, with N406S counted along it
# Protocol: as §1
Binder,koff [1] [s⁻¹],kon [1] [M⁻¹ s⁻¹],binding result (MBP),EC50 (read off the curve) [2] [nM],EC50 (read off the curve) [3] [nM],EC50 (read off the curve) [4] [nM],EC50 (read off the curve) [5] [nM]
B1,0.000433,328000,,,,,
B2,,,no binding (tested: 10 nM),~0.3,~0.3,~0.3,~0.3
